B1: M. tuberculosis DnaG primase, full-length (enzyme)
chain: MSGRISDRDIAAIREGARIEDVVGDYVQLRRAGADSLKGLCPFHNEKSPSFHVRPNHGHFHCFGCGEGGDVYAFIQKIEHVSFVEAVELLADRIGHTISYTGAATSVQRDRGSRSRLLAANAAAAAFYAQALQSDEAAPARQYLTERSFDAAAARKFGCGFAPSGWDSLTKHLQRKGFEFEELEAAGLSRQGRHGPMDRFHRRLLWPIRTSAGEVVGFGARRLFDDDAMEAKYVNTPETLLYKKSSVMFGIDLAKRDIAKGHQAVVVEGYTDVMAMHLAGVTTAVASCGTAFGGEHLAMLRRLMMDDSFFRGELIYVFDGDEAGRAAALKAFDGEQKLAGQSFVAVAPDGMDPCDLRLKCGDAALRDLVARRTPLFEFAIRAAIAEMDLDSAEGRVAALRRCVPMVGQIKDPTLRDEYARQLAGWVGWADVAQVIGRVRGEAKRTKHPRLGRLGSTTIARAAQRPTAGPPTELAVRPDPRDPTLWPQREALKSALQYPALAGPVFDALTVEGFTHPEYAAVRAAIDTAGGTSAGLSGAQWLDMVRQQTTSTVTSALISELGVEAIQVDDDKLPRYIAGVLARLQEVWLGRQIAEVKSKLQRMSPIEQGDEYHALFGDLVAMEAYRRSLLEQASGDDLTA
notes: DnaG primase, Mycobacterium tuberculosis, full length (the truncated form ends at amino acid 639); also called full DnaG; full-length DnaG
B2: primase domain of gene 4 protein (gp4) from bacteriophage T7 (residues 1–271) (domain or fragment, UniProt P03692 1-271, looked up)
chain: MDNSHDSDSVFLYHIPCDNCGSSDGNSLFSDGHTFCYVCEKWTAGNEDTKERASKRKPSGGKPMTYNVWNFGESNGRYSALTARGISKETCQKAGYWIAKVDGVMYQVADYRDQNGNIVSQKVRDKDKNFKTTGSHKSDALFGKHLWNGGKKIVVTEGEIDMLTVMELQDCKYPVVSLGHGASAAKKTCAANYEYFDQFEQIILMFDMDEAGRKAVEEAAQVLPAGKVRVAVLPCKDANECHLNGHDREIMEQVWNAGPWIPDGVVSALSL
notes: primase domain of gene 4 protein (gp4), bacteriophage T7, residues 1-271; For the NMR spectra the protein was 15N-labelled and deuterated; Monomer without cofactors, dimer with ATP/CTP, RNA and Mg2+; also called T7 primase; T7 DNA primase

Legend:
[1] = molecular target: the molecule itself; experiment: SPR; full-length DnaG (7.2 μg) immobilised on a GLC chip by amine coupling; soluble DnaG 0-17 μM, 60 μL/min; signal at equilibrium; profile did not follow a pure 1:1 fit; monomer to dimer
[2] = molecular target: the molecule itself; experiment: cross-linking; Fe(II)-catalysed cross-linking of T7 primase (15 μM) with 1 mM ATP, ferrous chloride, H2O2, ascorbic acid, room temperature 45 min; products analysed by Superdex 200 SEC, SDS-PAGE and MALDI-TOF
[3] = molecular target: the molecule itself; experiment: SAXS; T7 primase at constant concentration (1 mg/ml in the methods, 50 μM in the legend) with increasing 4-mer RNA (5'-ACCC-3'), RNA:protein molar ratio 1 to 10, in the presence of ATP/CTP, RNA and Mg2+; 20 mM Tris-HCl pH 7.5, 1 mM DTT; 4 °C; Rg against theoretical monomer (24 Å) and dimer (27 Å)

Row | Protein | Kd [1] [nM] | stoichiometry N [2] | stoichiometry N [3]
1 | B1 | 2000 ± 300 | – | –
2 | B2 | – | 3 | 2
